Reference: the supplement of paper PMC9170038

Tested on: MS2 coat protein
Experiment: apparent KD of MS2 coat protein; designed switch direction (-1 OFF switch, 1 ON switch): -1; higher = weaker reporter binding
In short: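 Transcription of designed RNA switches on Illumina chips was done by stalled E. coli RNA polymerase. SNAP-549-labelled MS2 coat protein was then titrated in doubling steps from 0.7 or 1.5 nM to 3 µM, with steps of 0.8–1.5 h at the lowest and 10–20 min at the highest concentration. The per-design median over clusters of curve-fitted normalised fluorescence is reported as apparent KD.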

[1] = Eterna round: R95, input ligand: microRNA oligo, concentration not stated
[2] = input ligand: microRNA oligo, concentration not stated

| Sequence | apparent KD of MS2 coat protein [1] [nM] | apparent KD of MS2 coat protein (input ligand: FMN 200 uM) [nM] | apparent KD of MS2 coat protein (input ligand: none) [nM] | apparent KD of MS2 coat protein [2] [nM] |
| --- | --- | --- | --- | --- |
| GUCAUACAUGAGGAUCACCCAUGUAAGGAUAUGCUAGCGGUCGGAAGAAUGACUGCUAGCAGAAGGUACAUGAU [Mat - Mod of JL D83] (puzzle: Exclusion 1) | 62.5 |  |  |  |
| GUCAUCAAACAUGGGAUCAACAUGAGGAUCACCCAUGUUGUCAAGUUUUUUGCUCGUCUUAUAAUACGUUUGAUGAC [Mod-Jxb] (Eterna round: R97, puzzle: Sensor, turn-off variant 1) |  | 16 | 16.4 |  |
| GUCAUCACACAUGGGAUCAACAUGAGGAUCACCCAUGUUGCCAAGUUGUUUGCACGUCUUAUCAUACGUUUUUCGAG [Mod-Jxh] (Eterna round: R97, puzzle: Sensor, turn-off variant 1) |  | 22.9 | 23.2 |  |
| GUCAUGAUAGGAUAUUACGGACGGAACAUGAGGAUCACCCAUGUGUCCCAAUCCAACUGAUAAGAAGGAUCAUGGC [Eternabot (Original) Solution 34] (Eterna round: R97, puzzle: Exclusion 5) |  | 18.8 | 14.5 |  |
| GUCCAACAUGAGGAUCACCCAUGUCAGGAUAUGCGAAUUUCAUCAAAAGAUGAAAUUUGCAGAAGGGACUGGAC [Omei Ex1 A29] (Eterna round: R97, puzzle: Exclusion 1) |  | 44 | 23.3 |  |
| GUCCUACAUGAGGAUCACCCAUGUAAGGAUAUGCUAGCGGUCGGAUGACUGACUGCUAGCAGAAGGUACAUGAU [Mat - Mod of JL D78] (puzzle: Exclusion 1) | 15.5 |  |  |  |
| GUCGUGCGGCUUUGCUGUACGAGUACAUGAGGAUCACCCAUGUAGGAUAUGGUACGCUUUGCGUGCCAGAAGGGCGUGCGUUGG [salish99_ExNG3_r04_006] (Eterna round: R96, puzzle: Exclusion NG 3) |  | 33.3 | 29.9 | 23.9 |
| GUCGUGCGGCUUUGCUGUACGAGUACAUGAGGAUCACCCAUGUAGGAUAUGGUUCGUUUUGCGUGCCAGAAGGGCGUGCGUUGU [Excl-NG3-LRO14] (Eterna round: R96, puzzle: Exclusion NG 3) |  |  |  | 15.1 |
| GUCGUGCGGCUUUGCUGUGCGGGUGCAUGAGGAUCACCCAUGUAGGAUAUGGUACGCUUUGCGUGCCAGAAGGGCGUGCGUUGG [salish99_ExNG3_r04_009] (Eterna round: R96, puzzle: Exclusion NG 3) |  | 154 | 110 | 114 |
| GUCUGGCUAGGAUAUACAGUGUCCACAAGUUAGUUACCCUAACAUGAGGAUCACCCAUGUAGAAGGAGUGAGAA [Revebeed] (Eterna round: R96, puzzle: Exclusion 2) |  | 355 | 45.4 | 34.7 |
| GUCUUGUCAGGAUAUCUUACAUAACCAUCGUAGUUACAAUUGGAGAAGGGACAUGAGGAUCACCCAUGUUUGCG [tap-tap-tappy32] (Eterna round: R97, puzzle: Exclusion 4) |  | 34.8 | 26.6 |  |
| GUGAAACAUGAGGAUCACCCAUGUGAGGAUAUGUUUUAGUACUGCAGACAGUACAUCUAUAGAAGGCACAAUGG [Mat - Mod of JL D74] (puzzle: Exclusion 1) | 37 |  |  |  |
| GUGAAGGUAGGAUAUACGAUAAUAUAGGGUAGAUAUAUAACACAUGAGGAUCACCCAUGUAGAAGGACCAAGUG [Mat - Exclusion 2 - Mod of my Tesla design - D61] (puzzle: Exclusion 2) | 46 |  |  |  |
| GUGAUCUAUCAUGUAAUCAACAUGAGGAUCACCCAUGUAGACAAGUUUUUUGCUCGUCUGAUAAUAAGAUAGAUCAC [Antenna 16 - Jieux - Sensor, turn-off variant 1] (Eterna round: R97, puzzle: Sensor, turn-off variant 1) |  | 13.8 | 12.3 |  |
| GUGCAAUGAGGAUAUACGUAGGUGAACAUCUGUGUGCUCCUACAUGAGGAUCACCCAUGUAGAAGGCAUGUCAC [LRO-Excl2-17] (puzzle: Exclusion 2) | 13.1 |  |  |  |
